Kd data for one variant are collected here from article PMC8857485, “Prostate secretory protein 94 inhibits sterol binding and export by the mammalian CAP protein CRISP2 in a calcium-sensitive manner” (The Journal of Biological Chemistry, 2022).

B1: CRISP2 (cysteine-rich secretory protein 2), C-terminal polyhistidine tag [modified: RED-tris-NTA fluorescent label on the His tag; RED-tris-NTA fluorescent label on the His tag] [human] / prostate secretory protein of … (parent)
chain 1: KDPAFTALLTTQLQVQREIVNKHNELRKAVSPPASNMLKMEWSREVTTNAQRWANKCTLQHSDPEDRKTSTRCGENLYMSSDPTSWSSAIQSWYDEILDFVYGVGPKSPNAVVGHYTQLVWYSTYQVGCGIAYCPNQDSLKYYYVCQYCPAGNNMNRKNTPYQQGTPCAGCPDDCDKGLCTNSCQYQDLLSNCDSLKNTAGCEHELLKEKCKATCLCENKIY
chain 2: SCYFIPNEGVPGDSTRKCMDLKGNKHPINSEWQTDNCETCTCYETEISCCTLVSTPVGYDKDNCQRIFKKEDCKYIVVEKKDPKKTCSVSEWII

The assay covers variants of B1. Put plainly: microscale thermophoresis. The conditions noted are these: with prostate secretory protein of 94 amino acids (PSP94), measurements in triplicates, PSP94 titrated (x axis PSP94 [nM]).
For the variant chain 1 N76P L77G, the Kd is 4 nM.
